Source: PMC12718255, “Quantitative assessment of porin-mediated solute transport in biomimetic membranes” (Applied Microbiology and Biotechnology, 2025)

Substrate: Oc1ccc(Cc2nc3c(Cc4ccccc4)nc(-c4ccc(O)cc4)cn3c2O)cc1
Test: luminescence, extrapolated peak intensity, Hill fit
Format: biochemical, Gaussia princeps (in: crustaceans)
Details: free GLuc 0.05 µM, PBS, O2 as co-substrate, 0.1-30 µM CLZ

B1: Gaussia luciferase (GLuc) (Gaussia princeps (in: crustaceans); M127L/M60L) (protein)
chain: KPTENNEDFNIVAVASNFATTDLDADRGKLPGKKLPLEVLKELEANARKAGCTRGCLICLSHIKCTPKMKKFIPGRCHTYEGDKESAQGGIGEAIVDIPEIPGFKDLEPLEQFIAQVDLCVDCTTGCLKGLANVQCSDLLKKWLPQRCATFASKIQGQVDKIKGAGGD
K0.5: 9.8 (95% CI [6.2 µM, 43.1 µM]) µM
